The experiment has as its target endogenous B7-H1 wild type (NOD mouse, from wild-type spleen) (mouse (endogenous in NOD spleen), UniProt Q9EP73 19-290). Briefly: SPR.

endogenous B7-H1 wild type (NOD mouse, from wild-type spleen), sequence (Q9EP73 19-290): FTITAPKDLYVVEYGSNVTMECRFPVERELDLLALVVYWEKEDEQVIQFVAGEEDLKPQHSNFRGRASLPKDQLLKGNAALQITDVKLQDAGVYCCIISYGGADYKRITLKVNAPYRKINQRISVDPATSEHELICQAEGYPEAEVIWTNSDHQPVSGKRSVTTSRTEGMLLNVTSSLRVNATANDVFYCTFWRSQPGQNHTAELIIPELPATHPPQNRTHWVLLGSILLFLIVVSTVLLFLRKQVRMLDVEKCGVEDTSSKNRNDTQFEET

B1: PD-1 receptor (receptor, UniProt Q02242 25-169, looked up)
chain: LEVPNGPWRSLTFYPAWLTVSEGANATFTCSLSNWSEDLMLNWNRLSPSNQTEKQAAFCNGLSQPVQDARFQIIQLPNRHDFHMNILDTRRNDSGIYLCGAISLHPKAKIEESPGAELVVTERILETSTRYPSPSPKPEGRFQGM
In turn, B1 gave a Kd of 11 nM and an off-rate constant (koff) of 0.0017 s⁻¹.

The values above are taken from paper PMC3279538 (Diabetes, 2010).
